This series can be described thus: label from the status in PepcDB records.
In the case of “MTTIAILSDIHGNMTAFSAVIQDAKAHQADEYWFLGDLFLPGPGSDKLWATLHGLKPTHIVKGNWDDDLFWVLDGPVDLSQPTDVYFSRLVAYLWPHLTAENLATIRNWPLHEVFEQDGLIVSLAHNLPDKNHGHALYPDQPQLNFDQIAPDSQIDLAVYGHTHQQLLRYTSNGQVILNPGSIGQAYSPRPHLQTTTYADYALLQLNDGAITDLDLRQVPYDVSAELSLAKQQQLPYPEVYTKLRHTGATSTHNAAYLKQFEQRHDYQQEVAEFLHKYRHQHLEHHHHHH”, the protein production entry is “failed”.
Under “MTTIRVENLSKIFKKGKTEVKAVDNVSITIDSGMAFGVLGPSGHGKTTFLRLIAGLEEPTSGYIYFDNEAVSSPRRVMMSPEKRGIAMVFQNWALYPNMTVFDNIAFPLKLAKVPKDKIENKVKEVSEELGLSGVLNRYPKELSGGQMQRTAIARALVKDPKVLLLDEPFSNLDAQIRESARALVRKIQRERKLTTLIVSHDPADIFAIANKAGVIVNGKFAQIGTPTEIYEYPATDLIARLTGEINLIQAKIIENNAIIANLKVPLNNMELKGQSNIVIGLRPDDLTLSDTLLDKYIDMGIVKVKLVSYGAGIFKIVVSPITDENIDIIVDAEEPLETGIETHLLAKPNKVKIFDLNGSNLITSKTQIIK” stands “failed”; under “MTTIVPTSEENPFLAVVRFTSQLAWADAGPEAAEPEITRLCREAEESMVAEKWLELSSLMVTSAELVSSKISEKDLECTYTIICSIVKNAKSPEQVLEMVKAIASKVAQQPSDKASLRLKILFNLYNLVDHPYARFQVYMKALTLAVDGKVTEYIVSSFKKIDNFLKEWNIDIKDQRELFLAIANVLKENKSLVNESLKFLTKYLATFSNEDAQVLDEAKEEAVRAVIEFVKASSIFQCDLLDLPAVAQLEKDAKYAPVYQLLKIFLTQRLNAYTEFQNANSGFLQSYGLSNEDCVTKMRLLSLVDLASDESGKIPYTSIKDTLQVNEQDVELWIVKAITAKLIESALPNVNLGQSNGNLSEQSLRLGSIITTIESNKVTEEGSQASSSSAAAIQGLSVR”, “failed”.
Under “MTTKLDPEALNVSEEARERGTGYLNVALFGVDSRDNELEKDTRSDTIMIASLNRETMEVKISSVYRDTLLEQSDGTLNKANAAYSFGGPETAVAMLNKNLDMDIEHYVTVNFNSLIDVIDAVGGVEIDVQEEEIPYICGYAMEIMRVTGRESAGVTEPGVQTLNGIQATAYARIRYTAGDDFKRAERQRDVLTKIVGKLQGASLAQINKIIDKVFPEVSTNFTLAEILEYAKDAFDYKLGETIGFPFDKTTDTLANIGSVVIPVTLDKNVEQLHKFFYGEGDTYSPSSTVNTISGKIVAKAGDRQADTDEDSQGIMQQPDESYTGGGSSGGTKTPSSGGTSGGSSQPTPTPTPTPTPTPEPDPQPQPDPGGDDGSGGSGGDTSGGGAEGTPDAGTQLEHHHHHH” stands “failed”; under “MTTLGIVSDTHGYFHPNLADDLSGVDRILHAGDVGDPAILDGLEAVAPVTAVWGNIDDASLRRRLAEHERFTVAGLDVWMTHIAGRPGRWQDGMGTKLEATPPDVLVCGHSHILQVERVAALDDMLYVNPGAAGKQGFHQTKTCLRLAVEDGRATEAAVVHLDPDASPAQAPDP”, “failed”; under “MTTLTAQQIACVYAWLAQLFSRELDDEQLTQIASAQMAEWFSLLKNEPPLTAAVNELENRIATLTVRDDARLELAADFCGLFLMTDKQAALPYASAYKQDEQEIKRLLVEAGMETSGNFNEPADHLAIYLELLSHLHFSLGEGTVPARRIDSLRQKTLTALWQWLPEFVARCRQYDSFGFYAALSQLLLVLVECDHQNR”, “failed”.
Turning to “MTTNPYTGEREAGKSAIGAGLGSLVGAGIGALSSSKKDRGKGALIGAAAGAALGGGVGYYMDVQEANVRDKMRGTGVSVTRSGDNIILNMPNNVTFDSSSATLKPAGANTLTGVAMVLKEYPKTAVNVIGYTDSTGGHDLNMRLSQQRADSVASALITQGVDASRIRTQGLGPANPIASNSTAEGKAQNRRVEITLSPLLEHHHHHH”, the protein production entry was “not failed”.
Under “MTTNRYMKGIMWAMLASTLWGVSGTVMQFVSQNQAIPADWFLSVRTLSAGIILLAIGFVQQGTKIFKVFRSWASVGQLVAYATVGLMANMYTFYISIERGTAAAATILQYLSPLFIVLGTLLFKRELPLRTDLIAFAVSLLGVFLAITKGNIHELAIPMDALVWGILSGVTAALYVVLPRKIVAENSPVVILGWGTLIAGILFNLYHPIWIGAPKITPTLVTSIGAIVLIGTIFAFLSLLHSLQYAPSAVVSIVDAVQPVVTFVLSIIFLGLQVTWVEILGSLLVIVAIYILQQYRSDPASD” stands “failed”; under “MTTPEGGARKPRIGIMGEFSAGKSTLSNLLLGQRILPEQVTATRLPPVWIVQGDKPAQRAALDGSLHPMSLVDLEEISLEETLYVKIGIDAPVLDECDLIDFPGISDPNMPSEVWERMLAEVDSVLWCTHATQAWRQSEAAAWGMVPEAVRQRSLLLITRFDKLTTPLDKLRVQTRVARETEGLFAGVCPISLTEALAAAPDSPEWEASGAETFADALEAVVRAAACGGLPEAMPAQTQLTAPAAPEPAEPSTSAPQPAPGRVMPRRVRPKGETRTPRPSARPQAADQDLSALRREMQET”, “failed”; under “MTTPGKLNKARVPPYKTAGLGLVLVFALVVALVYLQFRGEFTPKTQLTMLSARAGLVMDPGSKVTYNGVEIGRVDTISEVTRDGESAAKFILDVDPRYIHLIPANVNADIKATTVFGGKYVSLTTPKNPTKRRITPKDVIDVRSVTTEINTLFQTLTSIAEKVDPVKLNLTLSAAAEALTGLGDKFGESIVNANTVLDDLNSRMPQSRHDIQQLAALGDVYADAAPDLFDFLDSSVTTARTINAQQAELDSALLAAAGFGNTTADVFDRGGPYLQRGVADLVPTATLLDTYSPELFCTIRNFYDADPLAKAAAGGGNGYSLRTNSEILSGIGISLLSPLALATNGAAIGIGLVAGLIASPLAVAANLAGALPGIVGGAPNPYTYPENLPRVNARGGPGGAPGCWQPITRDLWPAPYLVMDTGASLAPYNHMEVGSPYAVEYVWGRQVGDNTINP”, “failed”.
Under “MTTRRLPRPCRFNPTIHVVLAVLALLLSGLAAFADLPALTGRVVDDAGIIDAGTRAALTQKLADFEKKGSDQIVVATIPSLGGEEIEPYANRLFRFWKLGQAGENNGVLLLVAKNDHKMRIEVGYGLEGTLTDLHTKLIIENDMVPAFRAGDFSGGISKAVDDMVMVLEGNPEELEARGKRNPADSSTPIDPIVTVFLILWATMFFGGLAMAFLPPMFGTKLSPGVYRWLGMTFRYGKGPSGSSGGSGWTTGSSGGGWSSGSSSSGWSSGSSSSGGGFSGGGGSSGGGGSSGSW” stands “failed”.
Under “MTTRTRNLYILMLANLLMSASMTMIMPFLSLYIETFGDYSNAYVQRWAGYIFGVTFLIAFIFSPIWGRIGDKHGYKGILILTSVGLSICIFLMGFAHSVTYLLILRIFMGVVTGFIGVSNAFIARQTPRNEAGKVLGTLQLGGVTGMLFGPLIGGAMADLFGFKDTFTITGIAMMVAALIVAFGVKEIRTEEQKEAAKVVYSRRAVLKQIFTLRVLFTVMVITALIQIANFSVQPLLALYVGDMTQSDNIAFLSGLAFSATGFGNLVMTRKWGQLGDKYGYEKILNILLIMAAVFVIPQAFATNLWVFIFFRFLFGIAIGGMVPCTTAYIRLAAPGVMQGEMLGYNQSARFLGNVIGPILGGTLAGFTGIPSVFLFMSFMFLVAFFILLYALRSDRKRHVNVD” stands “failed”; under “MTTSATSGTGPTANSMRRALKRARDGVALDVTEAAVLLQARGEDLDDLTASAARVRDAGLEAAGRAGVITYSKSVFIPLTRLCRDKCHYCTFVTVPGKLRRAGHGMFMSPDEVLDIARKGAALGCKEALITLGDKPEDRWPEAREWLDAHGYDDTIAYVRAISIRILEETGLLPHLNPGVMSWTDFQRLKPVAPSMGMMLETTATRLWSEPGGPHHGSPDKEPAVRLRVLEDAGRSSVPFTSGILIGIGETYEERAESLFALRKISRAYHGIQELIIQNFRAKPDTAMRGMPDAELDELIATVAVARHIMGPRACLQAPPNLVDSEYGRLIGAGIDDWGGVSPLTIDHVNPERPWPQIDLLREQSAQAGFELRERLCVYPEFVQRGEPWLDPRLLPHVRALADPASGLAHADATVEGHPWQEPEEAFVAQGRTDLHHSIDTEGRTGDRRDDFDVVYGDWEALREAAAPGMVPERIDTDVRQALATAANDPTRLTDAEALALLHADGPALDALTRIADDVRKAAVGDDVTYIVTRNINFTNVCYTGCRFCAFAQRRTDADAYTLSLEQVADRAQQAWDVGAVEVCMQGGIHPDLPGTAYFDIAKAVKERVPGMHVHAFSPMEVVNGATRTGLSIREWLTAAKEAGLDSIPGTAAEILDDEVRWVLTKGKLPTATWIEVITTAHELGIRSSSTMMYGHVDQPRHWLGHFRTLARIQQQTGGFTEFVTLPFIHTNAPVYLAGIARPGPTTRDNRAVMAMARLLLHPHIPNIQTSWVKLGTEGAAEMLRSGANDLGGTLMEETISRMAGSSYGSYKSVKDLIAVAEAAGRPAKPRTTLYGEVPQERQRAAAASDGHLPELLPVLD”, “failed”; under “MTTTLTILTPTYNRAYILPKLYASLVEQTNKHFDWMVVDDGSTDNTEQLISEFIADGKINIVYIKQKNGGKHRALNTGAQSINSDYIFIVDSDDYLTNDAIDIILENSHYLKEKNLMGMTLLRGYAPDKVIGEKYPEDFMIKNFNQVRYNMGIKGDKAEVVSTKIFRETPFPEIPGERFMSEGVAWKQLAHKGDSLFINKIVYITEYLEDGLTHSGRLLLIKNPLGAMLNAKLAMTKEFSFKIREKNSLLYIAYGFFAKKKVREIITESGQRKLVRVNLLFGWMI”, “failed”.
As to “MTTTPTTPATPTTPNAPTPDVTITVIVYNDAERLPRAVASLLRQTHPAIEIIISDDHSTDATPSVARELEASDPRIRYLRLPENSGGCSAPRNRALEIARAPYLMFLDSDDELPENAVALLLAAHREREVDFAMGAVERIRVDTGHRSTWMAHLVDERRTVDGIEAEPGLLFEHLATSKMYTRDFLDRHALRFPEGIHYEDQLFSAQAYCLAKSFTVIPQPVYRWYIAPYVAQDAASISNQRHKLSNVSDRIHVQTLIDDFLAESGHESLRQDKDYKFLKHDFRMYAGDLPYRDEDWLTGFARIVTPYLETLSPGAYALLPRAERVVLQLVRDGRLSEAQLAARGLGHSVAPRETTADDSGCLYWGPRLPSSDWARRELDVTELGLDSRPFPSAQFRHEITSVTPGRGMTVDLTIRTYDPGLRLPVGPQRASVVVAPGRRRLMVPFRLDPVRPGVFEGRVRVDLAAAPLPVQGFDGVRHPLLRLEQQGLANTGVLLAPLTFPTLRATRPGSLRHEVTVEPEGKAAGRLQIRWRPVGVTARVAGPVARKVAGPRVRRAARLVRSALR”, the protein production result was “failed”.
Under “MTTVDSPRDANGPPRFAASGFATPRRPDDTDDTGDADETAATVPHRTRALTTPPRRKTIAAPCIDARTRRDRPARRATHARRALADFRAPAPPVARGTTRNRARRYACPSVDAVARTAPSPHAHRAAPARRPPSSEGAIMSEAVRMERDTFGEIAVPAARLWGAQTQRSLQNFKISTEKQSPELIHALALIKRAAAAVNLELGVLAQDKANAIVAAADEIIAGRHADEFPLAVWQTGSGTQTNMNLNEVIANRASELLGGERGESRAVHPNDDVNRGQSSNDVFPTAMHIAAARAIVDHLLPALRTLRATLDAKAAAFADIVKIGRTHLQDATPLTLGQEFSGYVAQLDQGIRHVEAALPHLYELAQGGTAVGTGLNAHPKFAAGVAAEIGRLTGLPFVSAPNKFEVMAAADALVFAHGALKTVAASLMKIANDIRWLASGPRCGLGELSIPENEPGSSIMPGKVNPTQSEAVTMLCCQVFGNDVAVNFGGASGNFELNVFRPMIAHNVLQSVRLLADGAQGFNDHCAVGIEPNRARIDALLNESLMLVTALNPHIGYDKAAQIAKKAHKEGTTLKAAALALGYVTDAQFDEWVRPEHMVGNR” stands “not failed”.

These data come from a protein production outcome set (Wang et al. 2014).
